Changes are numbered by the printed parent chain.
T1: PPTC7 (31-304), wild type (human, UniProt Q8NI37 31-304)
T1 construct: human PPTC7, residues 31-304, from pGEX-6P-2 GST-PPTC7(31-304); GST removed with PreScission protease; assayed with 10 mM MnCl2 in the buffer; also called PPTC7 + Mn2+; Protein Phosphatase Targeting COQ7; source: E. coli BL21(DE3), purified (glutathione-sepharose, PreScission cleavage, Superdex 75 gel filtration); not shown: GST, N-terminal, cleaved
T1 sequence (looked up): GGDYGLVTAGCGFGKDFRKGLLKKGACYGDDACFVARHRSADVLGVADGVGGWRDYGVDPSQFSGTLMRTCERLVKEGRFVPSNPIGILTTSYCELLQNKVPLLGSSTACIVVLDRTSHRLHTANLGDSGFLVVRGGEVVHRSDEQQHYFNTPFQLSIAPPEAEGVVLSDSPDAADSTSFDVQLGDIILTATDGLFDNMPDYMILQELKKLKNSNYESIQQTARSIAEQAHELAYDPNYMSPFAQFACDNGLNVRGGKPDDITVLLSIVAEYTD

T2: recombinant PPTC7 (31-304) wild type (human, UniProt Q8NI37 31-304)
T2 construct: PPTC7, human, residues 31-304; pGEX-6P-2 vector; also called PPTC7 wild-type; GST-PPTC7(31-304); source: E. coli BL21(DE3), purified (glutathione-sepharose, PreScission cleavage, Superdex 75)
T2 sequence (looked up): T1 sequence (looked up)

T3: PPTC7 (31-304) D290N (human, UniProt Q8NI37 31-304, D290N)
T3 construct: human PPTC7, residues 31-304, from pGEX-6P-2 GST-PPTC7(31-304)(D290N); The purification is described for GST-PPTC7 (31-304); also called PPTC7 D290N; PPTC7-D290N; source: E. coli BL21(DE3), purified (glutathione-sepharose, PreScission cleavage, Superdex 75 gel filtration); not shown: GST, N-terminal, cleaved
T3 sequence (looked up): T1 sequence (looked up) with D260N

B1: BNIP3(N113-R139) peptide (peptide)
peptide: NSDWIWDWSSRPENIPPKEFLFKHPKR
notes: human BNIP3, residues N113-R139 (Q12983, 194 aa); also called BNIP3 peptide; source: synthetic peptide
B2: BNIP3 peptide (N113-R139) (peptide)
peptide: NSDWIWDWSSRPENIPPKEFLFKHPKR
notes: also called BNIP3(N113-R139); source: synthetic peptide
B3: NIX peptide (A138-R163) (peptide)
peptide: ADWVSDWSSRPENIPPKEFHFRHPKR
notes: also called BNIP3L(A138-R163); source: synthetic peptide
B4: BNIP3L(A138-R163) peptide (peptide)
peptide: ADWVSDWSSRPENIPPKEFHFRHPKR
notes: human NIX (BNIP3L), residues A138-R163; also called NIX; NIX peptide; source: synthetic peptide

Assays:
Conditions in all cases: both partners purified
[1] = target: T1, PPTC7 (31-304), wild type; test: ITC; 500 µM peptide (syringe) titrated into 25 µM PPTC7 (cell); 25 °C; 50 mM HEPES pH 7.5, 300 mM NaCl, 10 mM MnCl2, 2 mM β-mercaptoethanol; MicroCal PEAQ-ITC
[2] = target: T2, recombinant PPTC7 (31-304) wild type; test: ITC; 500 µM peptide titrated into 25 µM PPTC7; 25 °C; 50 mM HEPES pH 7.5, 300 mM NaCl, 10 mM MnCl2, 2 mM β-mercaptoethanol; MicroCal PEAQ-ITC
[3] = target: T3, PPTC7 (31-304) D290N; test: ITC; 500 µM peptide (syringe) titrated into 25 µM PPTC7 (cell); 25 °C; 50 mM HEPES pH 7.5, 300 mM NaCl, 10 mM MnCl2, 2 mM β-mercaptoethanol; MicroCal PEAQ-ITC

Binder	stoichiometry N [1]	Kd [2]	Kd [3]	stoichiometry N [3]
B1	1	–	–	–
B2	–	20.1 µM	–	–
B3	–	37.5 µM	–	–
B4	1	–	35.9 ± 1.09 µM	1
